From PMC5932034

Molecular target: T1, FlhA^C−link (longer FlhA^C construct that includes the linker) (Salmonella enterica serovar Typhimurium ST313), P40729
T1 chain: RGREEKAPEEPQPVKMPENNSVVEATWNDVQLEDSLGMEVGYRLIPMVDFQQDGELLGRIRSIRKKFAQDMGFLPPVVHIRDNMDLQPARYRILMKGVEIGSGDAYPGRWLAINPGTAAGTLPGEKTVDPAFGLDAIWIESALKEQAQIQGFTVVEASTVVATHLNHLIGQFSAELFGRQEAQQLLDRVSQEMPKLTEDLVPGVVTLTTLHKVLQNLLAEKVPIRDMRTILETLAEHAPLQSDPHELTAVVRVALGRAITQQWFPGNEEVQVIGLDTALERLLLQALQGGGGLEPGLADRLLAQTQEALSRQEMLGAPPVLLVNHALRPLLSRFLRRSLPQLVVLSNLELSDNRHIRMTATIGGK
Assay: SEC-MALS; Superdex 200 10/300 GL; 50 mM NaPi pH 6.8, 0.1 M NaCl, 0.05% NaN3; samples at 0.05–0.5 mM; room temperature
Conditions: remark: other sources report otherwise

B1: FlhA^C−link (longer FlhA^C construct that includes the linker), P40729 328-692 (domain or fragment)
chain: T1 chain
Binder B1 has a stoichiometry N of 2.
